{"source": "paper PMC3278561", "about": "(Plant Cell Reports, 2011)", "proteins": {"B1": {"name": "plant-derived Norwalk virus capsid protein (NVCP), assembled as virus-like particles (VLP) (natural protein)", "chain": "MMMASKDATSSVDGASGAGQLVPEVNASDPLAMDPVAGSSTAVATAGQVNPIDPWIINNFVQAPQGEFTISPNNTPGDVLFDLSLGPHLNPFLLHLSQMYNGWVGNMRVRIMLAGNAFTAGKIIVSCIPPGFGSHNLTIAQATLFPHVIADVRTLDPIEVPLEDVRNVLFHNNDRNQQTMRLVCMLYTPLRTGGGTGDSFVVAGRVMTCPSPDFNFLFLVPPTVEQKTRPFTLPNLPLSSLSNSRAPLPISSMGISPDNVQSVQFQNGRCTLDGRLVGTTPVSLSHVAKIRGTSNGTVINLTELDGTPFHPFEGPAPIGFPDLGGCDWHINMTQFGHSSQTQYDVDTTPDTFVPHLGSIQANGIGSGNYVGVLSWISPPSHPSGSQVDLWKIPNYGSSITEATHLAPSVYPPGFGEVLVFFMSKMPGPGAYNLPCLLPQEYISHLASEQAPTVGEAALLHYVDPDTGRNLGEFKAYPDGFLTCVPNGASSGPQQLPINGVFVFVSWVSRFYQLKPVGTASSARGRLGLRR"}}, "biological_target": "the molecule itself", "assay": "transmission electron microscopy"}
{"protein": "B1", "values": [{"measurement": "binding result", "result": "binds"}]}
